The source of these data is patent US20110301073, “Novel DNA-binding proteins and uses thereof” (Sangamo BioSciences, Inc., published 2011).

In one data set the target is T1, TALE13 +50 FokI (Xanthomonas axonopodis (engineered)).
T1 chain: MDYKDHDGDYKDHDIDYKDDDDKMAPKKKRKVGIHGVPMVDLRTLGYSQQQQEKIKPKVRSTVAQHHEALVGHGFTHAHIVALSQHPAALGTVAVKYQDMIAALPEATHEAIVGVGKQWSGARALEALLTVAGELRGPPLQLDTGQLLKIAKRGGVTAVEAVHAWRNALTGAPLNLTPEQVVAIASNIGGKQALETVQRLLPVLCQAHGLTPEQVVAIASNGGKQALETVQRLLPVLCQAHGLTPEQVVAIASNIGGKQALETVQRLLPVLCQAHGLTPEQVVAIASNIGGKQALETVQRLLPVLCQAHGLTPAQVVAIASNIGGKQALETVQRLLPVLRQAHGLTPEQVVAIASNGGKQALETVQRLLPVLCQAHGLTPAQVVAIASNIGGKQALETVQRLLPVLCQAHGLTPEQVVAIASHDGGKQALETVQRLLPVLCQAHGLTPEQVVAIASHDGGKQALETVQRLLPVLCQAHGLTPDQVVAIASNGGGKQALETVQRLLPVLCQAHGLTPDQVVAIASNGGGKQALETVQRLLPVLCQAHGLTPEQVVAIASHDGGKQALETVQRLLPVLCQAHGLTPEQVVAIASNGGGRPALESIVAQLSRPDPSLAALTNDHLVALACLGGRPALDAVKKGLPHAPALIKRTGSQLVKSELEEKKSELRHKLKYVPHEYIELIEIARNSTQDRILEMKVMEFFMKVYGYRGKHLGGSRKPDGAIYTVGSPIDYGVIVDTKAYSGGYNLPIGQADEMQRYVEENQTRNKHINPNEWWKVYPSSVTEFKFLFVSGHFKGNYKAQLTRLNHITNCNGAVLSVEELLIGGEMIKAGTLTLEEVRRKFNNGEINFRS
The data set is described as follows: cleavage_in_vitro; two inverted sites, 16 bp gap; NEB Buffer 2, 37 C. As to conditions: tags: FLAG, NLS, chain copies: 2. As for the experimental part: (§1) TALE domain fusions were also constructed using Fold cleavage half domains. For these examples, wild type FokI half cleavage domains were used so that for nuclease activity, a homodimer must be formed from two of the fusions. For these fusions, the TALE13 DNA binding domain was fused to each FokI half domain by cloning the TALE DNA binding domain into a plasmid adjacent to FokI-specifying sequence. In addition, various linkers were tested for use between the DNA binding domain and the nuclease domain. Linkers L2 and L8 were used which are as follows: L2=GS (SEQ ID NO:71) and L8=[…] (SEQ ID NO:72). The target sites were cloned into a TOPO2.1 target vector (Invitrogen) with varying gap spacings between each target binding site such that the two were separated from each other by 2 to 22 bp. PCR amplification of an approximately 1 kb region of the target vector was done to generate the target DNAs. The TALE DNA binding domains were also truncated as described previously, and are described using the same nomenclature as described above in Examples 2 and 6. The TALE domain nuclease fusion clones were expressed in the TNT Rabbit Reticulocyte Lysate system by adding 5 μL of water containing 250 nanograms of the nuclease fusion clone plasmid to 20 μL of lysate and incubating at 30° C. for 90 minutes.
(§2) The lysate was then used to cleave the target DNAs as follows: 2.5 μL of lysate were added to a 50 μL reaction containing 50 nanograms of PCR-amplified target DNA and a final Buffer 2 (New England Biolabs) concentration of 1×. The cleavage reaction was for one hour at 37° C., followed by a 20 minute heat inactivation stage at 65° C. The reaction was then centrifuged at high speed to separate the target DNA from the lysate, causing the lysate to condense into a pellet in the reaction well. The DNA-containing supernatant was pipetted off and run on an ethidium bromide-stained agarose gel (Invitrogen) to separate intact target DNA from cleaved target DNA. The agarose gel was then analyzed using AlphaEaseFC (Alpha Innotech) software to measure the amount of target DNA present in the large uncleaved DNA band and the two smaller DNA bands resulting from a single cleavage event of the target DNA. The percentage of cleaved DNA out of the total amount of target DNA loaded into the gel represents the percent cleavage in each reaction.

The next data set addresses T2, TALE13 +28 FokI (Xanthomonas axonopodis (engineered)).
T2 chain: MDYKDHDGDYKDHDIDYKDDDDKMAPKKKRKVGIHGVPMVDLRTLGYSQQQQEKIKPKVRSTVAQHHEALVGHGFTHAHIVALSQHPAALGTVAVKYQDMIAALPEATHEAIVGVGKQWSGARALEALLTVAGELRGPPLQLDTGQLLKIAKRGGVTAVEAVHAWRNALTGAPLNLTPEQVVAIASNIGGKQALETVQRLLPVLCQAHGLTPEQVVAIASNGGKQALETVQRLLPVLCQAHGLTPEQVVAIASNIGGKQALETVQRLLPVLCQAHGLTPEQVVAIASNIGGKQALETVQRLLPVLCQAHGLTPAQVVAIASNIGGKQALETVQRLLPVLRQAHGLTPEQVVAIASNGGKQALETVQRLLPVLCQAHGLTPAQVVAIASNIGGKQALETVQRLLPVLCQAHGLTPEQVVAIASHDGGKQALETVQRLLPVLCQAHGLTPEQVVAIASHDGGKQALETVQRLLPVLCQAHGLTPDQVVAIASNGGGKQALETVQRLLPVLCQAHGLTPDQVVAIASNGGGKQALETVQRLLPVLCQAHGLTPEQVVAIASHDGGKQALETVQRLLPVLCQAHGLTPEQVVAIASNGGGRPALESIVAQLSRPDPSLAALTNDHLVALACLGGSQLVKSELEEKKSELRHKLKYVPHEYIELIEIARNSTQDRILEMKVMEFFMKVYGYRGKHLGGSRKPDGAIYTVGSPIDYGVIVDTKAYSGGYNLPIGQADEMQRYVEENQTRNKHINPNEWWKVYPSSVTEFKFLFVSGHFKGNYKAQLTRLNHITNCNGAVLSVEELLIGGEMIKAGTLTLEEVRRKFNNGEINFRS
The description is as above. As to conditions: tags: FLAG, NLS, chain copies: 2. As for the experimental part: as §1, §2

B1: TALE13 target (dsDNA)
DNA 1: TATAAATACCTTCT
DNA 2: AGAAGGTATTTATA
B1: the activity with TALE13 +50 FokI was found to be 83 % cleavage; with TALE13 +28 FokI it was 100 % cleavage.
